# Test results published in PMC7069805.
# Molecular target: MD39 stabilized gp140 HIV Env trimer (HIV)
# Experiment: SEC-MALS
substance,measurement,value
MD39 stabilized gp140 HIV Env trimer (domain or fragment),stoichiometry N,3
